{"source": "patent US20050158838", "key": {"[1]": {"biological_target": "T1, AVLSNVMFI (negative control test peptide)", "T1 chain": "AVLSNVMFI"}, "DINDDRSLF test peptide": {"biological_target": "T2, DINDDRSLF test peptide", "T2 chain": "DINDDRSLF"}, "GDDDDK-β naphthylamine": {"biological_target": "T3, GDDDDK-β naphthylamine", "T3 chain": "GDDDDK"}, "[2]": {"biological_target": "T4, GDDDDKIYV (positive control test peptide)", "T4 chain": "GDDDDKIYV"}, "GNYTDRMFI test peptide": {"biological_target": "T5, GNYTDRMFI test peptide", "T5 chain": "GNYTDRMFI"}, "GNYTDRRFI test peptide": {"biological_target": "T6, GNYTDRRFI test peptide", "T6 chain": "GNYTDRRFI"}, "GNYTDRYFI test peptide": {"biological_target": "T7, GNYTDRYFI test peptide", "T7 chain": "GNYTDRYFI"}, "NKAKDRMFI test peptide": {"biological_target": "T8, NKAKDRMFI test peptide", "T8 chain": "NKAKDRMFI"}, "[3]": {"biological_target": "T9, phage isolate 5-A08 display polypeptide", "T9 chain": "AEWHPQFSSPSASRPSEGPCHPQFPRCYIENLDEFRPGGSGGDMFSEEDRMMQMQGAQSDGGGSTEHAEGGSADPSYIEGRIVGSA"}, "[4]": {"biological_target": "T10, phage isolate 5-B05 display polypeptide", "T10 chain": "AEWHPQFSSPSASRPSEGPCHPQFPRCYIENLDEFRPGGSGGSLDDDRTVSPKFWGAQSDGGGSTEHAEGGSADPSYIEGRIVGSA"}, "[5]": {"biological_target": "T11, phage isolate 5-H04 display polypeptide", "T11 chain": "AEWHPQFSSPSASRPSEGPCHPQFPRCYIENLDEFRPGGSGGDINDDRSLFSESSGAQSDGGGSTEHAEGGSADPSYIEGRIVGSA"}, "[6]": {"biological_target": "T12, phage isolate 5-H11 display polypeptide ((Asp)4-Lys-containing recognition sequence)", "T12 chain": "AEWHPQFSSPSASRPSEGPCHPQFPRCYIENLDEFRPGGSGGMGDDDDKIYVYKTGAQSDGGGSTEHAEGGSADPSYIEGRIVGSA"}}, "data": [{"protein": "recombinant light chain enterokinase (Novagen, Madison, Wis.) (protein) IVGGSDSREGAWPWVVALYFDDQQVCGASLVSRDWLVSAAHCVYGRNMEPSKWKAVLGLHMASNLTSPQIETRLIDQIVINPHYNKRRKNNDIAMMHLEMKVNYTDYIQPICLPEENQVFPPGRICSIAGWGALIYQGSTADVLQEADVPLLSNEKCQQQMPEYNITENMVCAGYEAGGVDSCQGDSGGPLMCQENNRWLLAGVTSFGYQCALPNRPGVYARVPRFTEWIQSFLH", "values": [{"measurement": "cleavage by 20U recombinant light chain enterokinase, 36-48 hrs, HPLC", "setting": "[1]", "value": "No cleavage occurred with the negative control peptide (SEQ ID NO:198)"}, {"measurement": "Cleavage Rate", "setting": "DINDDRSLF test peptide", "value": 1.43, "unit": "nmol/min"}, {"measurement": "cleavage by 20U recombinant light chain enterokinase, 36-48 hrs, HPLC", "setting": "DINDDRSLF test peptide", "value": "all digestions were carried to completion (except for the negative control which was not cleaved at all)"}, {"measurement": "rate relative to standard substrate (fold of standard substrate)", "setting": "DINDDRSLF test peptide", "value": 3.1}, {"measurement": "ratio (Va/Vb) against reference peptide GDDDDK-βNA, equal to the ratio of kcat/Km", "setting": "DINDDRSLF test peptide", "value": 30}, {"measurement": "rate relative to standard substrate (fold of standard substrate)", "setting": "GDDDDK-β naphthylamine", "value": 1}, {"measurement": "cleavage by 20U recombinant light chain enterokinase, 36-48 hrs, HPLC", "setting": "[2]", "value": "all digestions were carried to completion (except for the negative control which was not cleaved at all)"}, {"measurement": "rate relative to standard substrate (fold of standard substrate)", "setting": "[2]", "value": 0.7}, {"measurement": "ratio (Va/Vb) against reference peptide GDDDDK-βNA, equal to the ratio of kcat/Km", "setting": "[2]", "value": 1}, {"measurement": "Cleavage Rate", "setting": "GNYTDRMFI test peptide", "value": 0.81, "unit": "nmol/min"}, {"measurement": "cleavage by 20U recombinant light chain enterokinase, 36-48 hrs, HPLC", "setting": "GNYTDRMFI test peptide", "value": "all digestions were carried to completion (except for the negative control which was not cleaved at all)"}, {"measurement": "rate relative to standard substrate (fold of standard substrate)", "setting": "GNYTDRMFI test peptide", "value": 1.8}, {"measurement": "ratio (Va/Vb) against reference peptide GDDDDK-βNA, equal to the ratio of kcat/Km", "setting": "GNYTDRMFI test peptide", "value": 3.5}, {"measurement": "Cleavage Rate", "setting": "GNYTDRRFI test peptide", "value": 0.18, "unit": "nmol/min"}, {"measurement": "cleavage by 20U recombinant light chain enterokinase, 36-48 hrs, HPLC", "setting": "GNYTDRRFI test peptide", "value": "all digestions were carried to completion (except for the negative control which was not cleaved at all)"}, {"measurement": "rate relative to standard substrate (fold of standard substrate)", "setting": "GNYTDRRFI test peptide", "value": 0.4}, {"measurement": "Cleavage Rate", "setting": "GNYTDRYFI test peptide", "value": 0.24, "unit": "nmol/min"}, {"measurement": "cleavage by 20U recombinant light chain enterokinase, 36-48 hrs, HPLC", "setting": "GNYTDRYFI test peptide", "value": "all digestions were carried to completion (except for the negative control which was not cleaved at all)"}, {"measurement": "rate relative to standard substrate (fold of standard substrate)", "setting": "GNYTDRYFI test peptide", "value": 0.5}, {"measurement": "Cleavage Rate", "setting": "NKAKDRMFI test peptide", "value": 0.26, "unit": "nmol/min"}, {"measurement": "cleavage by 20U recombinant light chain enterokinase, 36-48 hrs, HPLC", "setting": "NKAKDRMFI test peptide", "value": "all digestions were carried to completion (except for the negative control which was not cleaved at all)"}, {"measurement": "rate relative to standard substrate (fold of standard substrate)", "setting": "NKAKDRMFI test peptide", "value": 0.6}, {"measurement": "enterokinase cleavage rate, phage ELISA (release of streptavidin-bound phage at 30 nM or 130 nM enterokinase)", "setting": "[3]", "value": "the cleavage rate for ... 5-H11 (SEQ ID NO:194) was slower than for at least three of the other isolates, i.e., 5-A08 (SEQ ID NO:137), 5-B05 (SEQ ID NO:145) and 5-H04 (SEQ ID NO:188)"}, {"measurement": "enterokinase cleavage rate, phage ELISA (release of streptavidin-bound phage at 30 nM or 130 nM enterokinase)", "setting": "[4]", "value": "the cleavage rate for ... 5-H11 (SEQ ID NO:194) was slower than for at least three of the other isolates, i.e., 5-A08 (SEQ ID NO:137), 5-B05 (SEQ ID NO:145) and 5-H04 (SEQ ID NO:188)"}, {"measurement": "enterokinase cleavage rate, phage ELISA (release of streptavidin-bound phage at 30 nM or 130 nM enterokinase)", "setting": "[5]", "value": "isolate 5-H04 (SEQ ID NO:188) shown in Table 5 was the most readily cut"}, {"measurement": "enterokinase cleavage rate, phage ELISA (release of streptavidin-bound phage at 30 nM or 130 nM enterokinase)", "setting": "[6]", "value": "the cleavage rate for the (Asp)4-Lys-containing recognition sequence 5-H11 (SEQ ID NO:194) was slower than for at least three of the other isolates"}]}]}
